We go through 54 molecules from PMC314469, “Protein Interaction Networks by Proteome Peptide Scanning” (PLoS Biology, 2004).

First the molecules themselves.
T1: Abp1 SH3 (ABP1_YEAST), P15891
T1 chain: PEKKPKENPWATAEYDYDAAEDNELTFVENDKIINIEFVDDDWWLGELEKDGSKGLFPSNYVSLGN

B1: YDR379W 561-573 (peptide)
chain: TPPLESGPLFKRP
B2: YIR002C 128-141 (peptide)
chain: TKKAKIIFTAPTRP
B3: YOL148C 219-231 (peptide)
chain: TNTVDVTPKENKP
B4: YJR024C 74-86 (peptide)
chain: TLEYLRSPKLYKP
B5: YKL109W 65-77 (peptide)
chain: TSKHWVLPPRPRP
B6: YKR084C 138-151 (peptide)
chain: TVQRYYKTTVPTKP
B7: YLR431C 386-399 (peptide)
chain: TTAQDGSSALPSKP
B8: YDR389W 475-487 (peptide)
chain: TSKMLKPPKQRRP
B9: YMR124W 350-362 (peptide)
chain: TNGPRYSPQNPRP
B10: YJL005W 370-382 (peptide)
chain: TTPTIETPISSKP
B11: YMR044W 280-292 (peptide)
chain: TKAKKEKPKPPKP
B12: YKL220C 449-461 (peptide)
chain: TVKKPARPWRAKP
B13: YJL045W 457-470 (peptide)
chain: TIADTLQPGLPHKP
B14: YHR100C 9-21 (peptide)
chain: TLRLLYNPSLSKP
B15: YDR128W 137-150 (peptide)
chain: TYVHAWDMRSPHRP
B16: YBL014C 33-45 (peptide)
chain: TTKKQENPQWLRP
B17: YNL226W 110-123 (peptide)
chain: TRKSVNIKSWPLKP
B18: YLL003W 876-888 (peptide)
chain: TTGLNGSPTRGKP
B19: YHR102W 715-728 (peptide)
chain: TKLSTHKASSPSRP
B20: YJR122W 470-483 (peptide)
chain: TTKGENIKITPQKP
B21: YDR128W 70-82 (peptide)
chain: VADVQWSPHPAKP
B22: YCL027W 383-396 (peptide)
chain: TEKHELIIPTPSKP
B23: YGR165W 78-90 (peptide)
chain: TVPTNHVPNYIKP
B24: YBL031W 191-203 (peptide)
chain: TPLSKPKPFMHKP
B25: YGL167C 571-584 (peptide)
chain: TFTGLIGMNDPPRP
B26: YOR022C 44-56 (peptide)
chain: TYQTLHSPKKFKP
B27: YDR176W 125-138 (peptide)
chain: TNIIDKGVQSPPKP
B28: YOL153C 56-68 (peptide)
chain: TFDVPASPQSKKP
B29: YKL178C 248-261 (peptide)
chain: TIWNTIIKFDPGRP
B30: YBL009W 142-155 (peptide)
chain: TKVTNSKFRTPLRP
B31: YJR061W 698-711 (peptide)
chain: TMFSGVSAFVPNRP
B32: YMR011W 36-49 (peptide)
chain: TKSEYTNAELPAKP
B33: YPL015C 81-93 (peptide)
chain: TLAKELYPGNFRP
B34: YKR098C 130-143 (peptide)
chain: TIKRKRAYSLPLRP
B35: YBR115C 740-752 (peptide)
chain: TLITFMVPRFDKP
B36: YLR414C 249-261 (peptide)
chain: TVIYANAPIEEKP
B37: YBR289W 757-769 (peptide)
chain: TTTYKSRPDRPKP
B38: YOR329C 400-413 (peptide)
chain: TTVPQQLPLEPLKP
B39: YDL224C 233-245 (peptide)
chain: TSSSPLGPSAAKP
B40: YML109W 280-292 (peptide)
chain: TKFDDEPPLADKP
B41: YLR249W 670-682 (peptide)
chain: TNMEFQYPGTSKP
B42: YHR102W 753-765 (peptide)
chain: THTNLAPPPTMKP
B43: YIL095W 739-752 (peptide)
chain: TKSNGKDKSRPPRP
B44: YKL148C 463-476 (peptide)
chain: TVADTLQPGLPHKP
B45: YGL169W 124-136 (peptide)
chain: TSLFDNIPSIYRP
B46: YIL110W 72-84 (peptide)
chain: TFEEFQSPIYRKP
B47: YNR051C 370-383 (peptide)
chain: TVEYIRPETLPKKP
B48: YBL047C 1258-1270 (peptide)
chain: TLTSSSNPTIPKP
B49: YPR096C 5-17 (peptide)
chain: TGVSIKNPRPSRP
B50: YEL044W 99-111 (peptide)
chain: TYFSVEAPPSIRP
B51: YML016C 58-71 (peptide)
chain: TNSNVPDPSTPSKP
B52: YGL122C 280-292 (peptide)
chain: TKVSNEYPNSPKP
B53: YCL048W 21-34 (peptide)
chain: THALGAAIDPPRRP
B54: YGR127W 236-248 (peptide)
chain: TMNTIYVPPLRRP

For this assay, the target named is T1, Abp1 SH3 (ABP1_YEAST), P15891. The experiment in a line: SPOT array.
In turn, B1 registered a normalised SPOT signal, Boehringer light units (BLU); mean over the file's lines of this peptide of 55.6.

In turn, B2 returned a normalised SPOT signal, Boehringer light units (BLU); mean over the file's lines of this peptide of 87.4. B3 came in with a normalised SPOT signal, Boehringer light units (BLU); mean over the file's lines of this peptide of 40.3. In the case of B4 it was 193; in that of B5, 3940; in that of B6, 352. In the case of B7 it was 133. The value for B8 was 617; that for B9 was 749. For B10, the normalised SPOT signal, Boehringer light units (BLU); mean over the file's lines of this peptide was determined as 38.3.

The molecule B11 gave a normalised SPOT signal, Boehringer light units (BLU); mean over the file's lines of this peptide of 1330. On to B12, for which the normalised SPOT signal, Boehringer light units (BLU); mean over the file's lines of this peptide came out at 356.

The molecule B13 had a normalised SPOT signal, Boehringer light units (BLU); mean over the file's lines of this peptide of 127. The value for B14 was 61.

For B15, the normalised SPOT signal, Boehringer light units (BLU); mean over the file's lines of this peptide was 489.

For B16, the normalised SPOT signal, Boehringer light units (BLU); mean over the file's lines of this peptide came out at 126.

Turning to B17, the normalised SPOT signal, Boehringer light units (BLU); mean over the file's lines of this peptide turned out to be 124.

B18: the normalised SPOT signal, Boehringer light units (BLU); mean over the file's lines of this peptide worked out at 83.1.

In turn, B19 displayed a normalised SPOT signal, Boehringer light units (BLU); mean over the file's lines of this peptide of 170.

B20: the normalised SPOT signal, Boehringer light units (BLU); mean over the file's lines of this peptide came to 166. Regarding B21, the normalised SPOT signal, Boehringer light units (BLU); mean over the file's lines of this peptide is 66.3. The value for B22 was 57.

On to B23, for which the normalised SPOT signal, Boehringer light units (BLU); mean over the file's lines of this peptide worked out at 3.6.

The molecule B24 came in with a normalised SPOT signal, Boehringer light units (BLU); mean over the file's lines of this peptide of 11300. In the case of B25 it was 83.7; in that of B26, 176. B27: the normalised SPOT signal, Boehringer light units (BLU); mean over the file's lines of this peptide turned out to be 140.

In turn, B28 showed a normalised SPOT signal, Boehringer light units (BLU); mean over the file's lines of this peptide of 113. In the case of B29 it was 180; in that of B30, 137; in that of B31, 451.

Molecule B32 returned a normalised SPOT signal, Boehringer light units (BLU); mean over the file's lines of this peptide of 67.7. B33 gave a normalised SPOT signal, Boehringer light units (BLU); mean over the file's lines of this peptide of 54. Molecule B34 registered a normalised SPOT signal, Boehringer light units (BLU); mean over the file's lines of this peptide of 133. In the case of B35 it was 0; in that of B36, 191. Turning to B37, the normalised SPOT signal, Boehringer light units (BLU); mean over the file's lines of this peptide was found to be 1770. The value for B38 was 104; that for B39 was 133; that for B40 was 133. The value for B41 was 93.7; that for B42 was 136. Molecule B43 had a normalised SPOT signal, Boehringer light units (BLU); mean over the file's lines of this peptide of 141. The value for B44 was 169. The value for B45 was 43.4. The value for B46 was 98.3; that for B47 was 65.5. Consider B48, for which the normalised SPOT signal, Boehringer light units (BLU); mean over the file's lines of this peptide amounted to 129. The value for B49 was 1030; that for B50 was 76.1; that for B51 was 78.1.

B52 displayed a normalised SPOT signal, Boehringer light units (BLU); mean over the file's lines of this peptide of 146. In the case of B53 it was 53.7; in that of B54, 3360.
